Data: patent US20160291016

Target: T1, phosphatidylinositol(4) phosphate 5 kinase type 1 gamma (PIPK1γ) of mouse osteoblasts, O70161
T1 chain: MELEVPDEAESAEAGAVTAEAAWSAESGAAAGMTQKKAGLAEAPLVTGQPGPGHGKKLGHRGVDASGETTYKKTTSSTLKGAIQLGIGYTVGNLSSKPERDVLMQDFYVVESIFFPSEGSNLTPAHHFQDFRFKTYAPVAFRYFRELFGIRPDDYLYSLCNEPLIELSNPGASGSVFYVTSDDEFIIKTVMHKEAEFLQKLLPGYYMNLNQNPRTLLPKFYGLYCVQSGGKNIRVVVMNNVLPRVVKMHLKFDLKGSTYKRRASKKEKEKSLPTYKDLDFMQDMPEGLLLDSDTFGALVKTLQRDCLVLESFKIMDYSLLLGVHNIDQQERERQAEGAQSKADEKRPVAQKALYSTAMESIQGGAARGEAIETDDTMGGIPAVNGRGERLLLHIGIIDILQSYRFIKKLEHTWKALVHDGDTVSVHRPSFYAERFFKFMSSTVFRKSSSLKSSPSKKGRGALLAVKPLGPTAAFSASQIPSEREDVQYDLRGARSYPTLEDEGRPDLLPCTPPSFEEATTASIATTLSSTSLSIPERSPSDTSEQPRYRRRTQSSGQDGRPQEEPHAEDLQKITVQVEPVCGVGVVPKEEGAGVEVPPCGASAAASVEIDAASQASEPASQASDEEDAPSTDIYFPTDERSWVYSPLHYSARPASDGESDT

B1: protein tyrosine phosphatase µ (PTPµ) of mouse osteoblasts (protein)
chain: ETFSGGCLFDEPYSTCGYSQADEDDFNWEQVNTLTKPTSDPWMPSGSFMLVNTSGKPEGQRAHLLLPQLKENDTHCIDFHYFVSSKSNAAPGLLNVYVKVNNGPLGNPIWNISGDPTRTWHRAELAISTFWPNFYQVIFEVVTSGHQGYLAIDEVKVLGHPCTRTPHFLRIQNVEVNAGQFATFQCSAIGRTVAGDRLWLQGIDVRDAPLKEIKVTSSRRFIASFNVVNTTKRDAGKYRCMICTEGGVGISNYAELVVKEPPVPIAPPQLASVGATYLWIQLNANSINGDGPIVAREVEYCTASGSWNDRQPVDSTSYKIGHLDPDTEYEISVLLTRPGEGGTGSPGPALRTRTKCADPMRGPRKLEVVEVKSRQITIRWEPFGYNVTRCHSYNLTVHYGYQVGGQEQVREEVSWDTDNSHPQHTITNLSPYTNVSVKLILMNPEGRKESQELTVQTDEDLPGAVPTESIQGSAFEEKIFLQWREPTQTYGVITLYEITYKAVSSFDPEIDLSNQSGRVSKLGNETHFLFFGLYPGTTYSFTIRASTAKGFGPPATNQFTTKISAPSMPAYEFETPLNQTDNTVTVMLKPAQSRGAPVSVYQIVVEEERPRRTKKTTEILKCYPVPIHFQNASILNSQYYFAAEFPADSLQAAQPFTIGDNKTYNGYWNTPLLPHKSYRIYYQAASRANGETKIDCVRVATKGAVTPKPVPEPEKQTDHTVKIAGVIAGILLFVIIFLGVVLVMKKRKLAKKRKETMSSTRQEMTVMVNSMDKSYAEQGTNCDEAFSFMGTHNLNGRSVSSPSSFTMKTNTLSTSVPNSYYPDETHTMASDTSSLAQPHTYKKREAADVPYQTGQLHPAIRVADLLQHITQMKCAEGYGFKEEYESFFEGQSAPWDSAKKDENRMKNRYGNIIAYDHSRVRLQMLEGDNNSDYINGNYIDGYHRPNHYIATQGPMQETIYDFWRMVWHENTASIIMVTNLVEVGRVKCCKYWPDDTEIYKDIKVTLIDTELLAEYVIRTFAVEKRGIHEIREIRQFHFTGWPDHGVPYHATGLLGFVRQVKSKSPPNAGPLVVHCSAGAGRTGCFIVIDIMLDMAEREGVVDIYNCVRELRSRRVNMVQTEEQYVFIHDAILEACLCGDTSIPASQVRSLYYDMNKLDPQTNSSQIKEEFRTLNMVTPTLRVEDCSIALLPRNHEKNRCMDILPPDRCLPFLITIDGESSNYINAALMDSYKQPSAFIVTQHPLPNTVKDFWRLVLDYHCTSVVMLNDVDPAQLCPQYWPENGVHRHGPIQVEFVSADLEEDIISRIFRIYNASRPQDGHRMVQQFQFLGWPMYRDTPVSKRSFLKLIRQVDKWQEEYNGGEGRTVVHCLNGGGRSGTFCAISIVCEMLRHQRTVDVFHAVKTLRNNKPNMVDLLDQYKFCYEVALEYLNSG
How did the “tyrosine phosphorylation of PIPK1γ (immunoprecipitation with PIPK1γ antibody, blot with phospho-tyrosine antibody)” value turn out when B1 was run?
The value was “Phosphorylation levels of PIPK1γ were higher in osteoblasts from PTPµ^-/- than in those from WT mice”.
